Test results published in patent US20210147486A1 (VIB VZW, published 2021).
Positions count from the first letter of the chain named.

Key:
[1] = target: T1, CsgG Y51T/N55V/F56Q/N91R/K94Q/R97W-del(V105-I107) pore containing the C terminal strep tag (Escherichia coli, UniProt P0AEA2 16-277); assay: pore 9; complex made by incubating pore and peptide; DNA translocation, signal:noise
T1 construct: not shown: C-terminal Strep tag
T1 chain: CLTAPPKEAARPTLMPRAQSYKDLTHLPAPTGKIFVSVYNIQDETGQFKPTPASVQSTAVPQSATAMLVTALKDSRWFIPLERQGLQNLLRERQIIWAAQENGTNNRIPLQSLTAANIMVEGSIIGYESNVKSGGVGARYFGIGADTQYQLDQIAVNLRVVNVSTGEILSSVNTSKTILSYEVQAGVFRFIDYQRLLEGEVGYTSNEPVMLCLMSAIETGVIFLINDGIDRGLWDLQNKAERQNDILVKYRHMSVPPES

[2] = target: T2, CsgG Y51A/F56V/N91R/K94Q/R97W-del(V105-I107) pore (Escherichia coli, UniProt P0AEA2 16-277); assay: pore 6; complex made by incubating pore and peptide; DNA translocation, signal:noise
T2 chain: T1 chain with T51A, V55N, Q56V

[3] = target: T3, CsgG Y51A/N55V/F56Q/N91R/K94Q/R97W-del(V105-I107) pore containing the C terminal strep tag (Escherichia coli, UniProt P0AEA2 16-277); assay: reconstitution of purified pore with synthetic peptide; SDS-PAGE after heating
T3 construct: also called Y51A/F56Q/N55V/N91R/K94Q/R97W-del(V105-I107); not shown: C-terminal Strep tag
T3 chain: T1 chain with T51A

[4] = target: T4, CsgG Y51A/N55I/F56Q/N91R/K94Q/R97W-del(V105-I107) pore containing the C terminal strep tag (Escherichia coli, UniProt P0AEA2 16-277); assay: pore 2; complex made by incubating pore and peptide; DNA translocation, signal:noise
T4 construct: N551 read as N55I; also called Y51A/N551/F56Q/N91R/K94Q/R97W-del(V105-I107) (so in the source); not shown: C-terminal Strep tag
T4 chain: T1 chain with T51A, V55I

[5] = target: T5, CsgG Y51A/F56A/N91R/K94Q/R97W-del(V105-I107) pore containing the C terminal strep tag (Escherichia coli, UniProt P0AEA2 16-277); assay: pore 4; complex made by incubating pore and peptide; DNA translocation, signal:noise
T5 construct: not shown: C-terminal Strep tag
T5 chain: T1 chain with T51A, V55N, Q56A

[6] = target: T6, CsgG Y51A/F56I/N91R/K94Q/R97W-del(V105-I107) pore containing the C terminal strep tag (Escherichia coli, UniProt P0AEA2 16-277); assay: pore 5; complex made by incubating pore and peptide; DNA translocation, signal:noise
T6 construct: F561 read as F56I; also called Y51A/F561/N91R/K94Q/R97W-del(V105-I107) (so in the source); not shown: C-terminal Strep tag
T6 chain: T1 chain with T51A, V55N, Q56I

[7] = target: T7, CsgG Y51S/N55V/F56Q/N91R/K94Q/R97W-del(V105-I107) pore containing the C terminal strep tag (Escherichia coli, UniProt P0AEA2 16-277); assay: pore 8; complex made by incubating pore and peptide; DNA translocation, signal:noise
T7 construct: not shown: C-terminal Strep tag
T7 chain: T1 chain with T51S

[8] = target: T8, CsgG Y51A/F56Q/N91R/K94Q/R97W-del(V105-I107) pore containing the C terminal strep tag (Escherichia coli, UniProt P0AEA2 16-277); assay: pore 1; complex made by incubating pore and peptide; DNA translocation, signal:noise
T8 construct: not shown: C-terminal Strep tag
T8 chain: T1 chain with T51A, V55N

[9] = target: T9, CsgG Y51S/N55A/F56Q/N91R/K94Q/R97W-del(V105-I107) pore (Escherichia coli, UniProt P0AEA2 16-277); assay: pore 7; complex made by incubating pore and peptide; DNA translocation, signal:noise
T9 chain: T1 chain with T51S, V55A

Measured: binding result

GTMTFQFRNPNFGGNPNNGAFLLNSAQAQNSYKDP [CsgF-(1-35) synthetic peptide]
binds: all assays above
